Test [1] concerns the target human Claudin18.2 expressed on cells (human) (UniProt P56856). Nature of the test: flow cytometry on 293FT CLDN18.2-Luc cells, APC anti-mouse IgG Fc.
Test [2] concerns the target Human Claudin-18.2 protein (human) (UniProt P56856). Nature of the test: SPR (Biacore 8K), antibody captured on Protein A, Claudin-18.2 protein as analyte.

The substance IMAB-mIgG2aFc (antibody) came in with an EC50 in test [1] of 0.07 nM. In test [2], this substance had a Kd of 5.65 nM, a koff of 0.000753 s⁻¹ and a kon of 133000 M⁻¹ s⁻¹.

The record behind these values is EP4682169A1.
